The values below come from patent publication US20180187272A1.

This experiment deals with Ste2 GPCR (Saccharomyces cerevisiae) (UniProt D6VTK4). As to the kind of experiment: cell-based or functional assay.
Ste2 GPCR (Saccharomyces cerevisiae), sequence (D6VTK4 whole entry): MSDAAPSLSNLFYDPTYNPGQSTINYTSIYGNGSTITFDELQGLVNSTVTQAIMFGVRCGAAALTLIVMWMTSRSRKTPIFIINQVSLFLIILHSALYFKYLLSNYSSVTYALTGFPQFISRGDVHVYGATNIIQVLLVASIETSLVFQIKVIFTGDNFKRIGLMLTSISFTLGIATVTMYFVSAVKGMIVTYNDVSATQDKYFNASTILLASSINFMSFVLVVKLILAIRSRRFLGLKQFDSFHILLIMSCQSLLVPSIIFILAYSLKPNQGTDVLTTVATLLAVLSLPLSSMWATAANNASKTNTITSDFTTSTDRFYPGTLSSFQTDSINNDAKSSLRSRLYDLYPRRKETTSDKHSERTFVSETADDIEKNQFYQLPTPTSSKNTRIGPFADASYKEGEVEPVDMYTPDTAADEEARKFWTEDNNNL

Substance “α-factor (from UniProt P01149 90-102) (peptide)” had a GFP max (AU), PFig1-GFP(m) of 7570 AU; a GFP max (AU), PFig1-GFP(s) of 2310 AU; a GFP max (AU), PFus1-GFP(m) of 20500 AU; a GFP max (AU), PFus1-GFP(s) of 4560 AU. Moreover, the KM (chemical concentration at half maximal signal), GFP reporter PFig1-GFP(m), flow cytometry is 0.02 µM; the KM (chemical concentration at half maximal signal), GFP reporter PFig1-GFP(s), flow cytometry came to 0.03 µM; the KM (chemical concentration at half maximal signal), GFP reporter PFus1-GFP(m), flow cytometry is 0.02 µM; the KM (chemical concentration at half maximal signal), GFP reporter PFus1-GFP(s), flow cytometry stood at 0.02 µM.
